This passage reports stoichiometry N results from paper doi:10.64898/2025.12.15.694324.

The assay concerns the target PARP15^CAT WT, isolated catalytic domain of human PARP15, batch with His-tag (human). Nature of the assay: native MS.

As to “PARP15^CAT WT, isolated catalytic domain of human PARP15, batch with His-tag (domain or fragment)”, the stoichiometry N (in general, the number of molecules, sites or subunits per partner or assembly) worked out at 2.
